Test results taken from patent US20220177594A1 (ZOETIS SERVICES, published 2022).
Read-outs that look alike come from different tables or passages of the source.

What was measured:
[1] = target: T1, canine OSMR on canine cells (canine, UniProt A0A8I3MI11 28-967); experiment: cell-based or functional assay
T1 sequence: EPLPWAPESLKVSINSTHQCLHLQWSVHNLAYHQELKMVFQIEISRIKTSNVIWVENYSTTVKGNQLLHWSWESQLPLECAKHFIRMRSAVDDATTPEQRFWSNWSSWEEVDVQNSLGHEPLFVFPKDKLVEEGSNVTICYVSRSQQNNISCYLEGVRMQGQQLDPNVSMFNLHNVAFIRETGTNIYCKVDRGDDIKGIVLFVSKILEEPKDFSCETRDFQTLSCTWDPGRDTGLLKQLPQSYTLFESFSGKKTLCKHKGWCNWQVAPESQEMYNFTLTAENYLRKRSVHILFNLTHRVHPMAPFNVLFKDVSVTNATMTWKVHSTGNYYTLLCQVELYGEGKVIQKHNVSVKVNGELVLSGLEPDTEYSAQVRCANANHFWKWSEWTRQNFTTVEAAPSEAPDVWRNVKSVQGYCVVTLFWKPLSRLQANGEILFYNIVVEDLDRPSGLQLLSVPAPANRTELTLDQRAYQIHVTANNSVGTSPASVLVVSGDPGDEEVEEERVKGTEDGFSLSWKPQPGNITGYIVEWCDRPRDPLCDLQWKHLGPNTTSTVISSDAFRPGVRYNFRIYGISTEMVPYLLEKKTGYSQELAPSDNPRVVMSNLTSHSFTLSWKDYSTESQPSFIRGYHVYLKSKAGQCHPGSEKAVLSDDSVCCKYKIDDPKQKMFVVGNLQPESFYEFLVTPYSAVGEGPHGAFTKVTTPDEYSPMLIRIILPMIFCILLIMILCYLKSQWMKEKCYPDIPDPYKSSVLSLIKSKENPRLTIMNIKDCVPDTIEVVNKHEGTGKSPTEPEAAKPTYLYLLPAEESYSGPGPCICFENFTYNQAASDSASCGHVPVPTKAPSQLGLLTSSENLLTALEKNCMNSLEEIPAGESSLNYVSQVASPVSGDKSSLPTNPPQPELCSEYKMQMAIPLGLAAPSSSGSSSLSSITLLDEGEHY

[2] = target: T2, feline OSMR on feline Fcwf-4 cells (feline, UniProt A0ABI8A843 28-960); experiment: cell-based or functional assay
T2 sequence: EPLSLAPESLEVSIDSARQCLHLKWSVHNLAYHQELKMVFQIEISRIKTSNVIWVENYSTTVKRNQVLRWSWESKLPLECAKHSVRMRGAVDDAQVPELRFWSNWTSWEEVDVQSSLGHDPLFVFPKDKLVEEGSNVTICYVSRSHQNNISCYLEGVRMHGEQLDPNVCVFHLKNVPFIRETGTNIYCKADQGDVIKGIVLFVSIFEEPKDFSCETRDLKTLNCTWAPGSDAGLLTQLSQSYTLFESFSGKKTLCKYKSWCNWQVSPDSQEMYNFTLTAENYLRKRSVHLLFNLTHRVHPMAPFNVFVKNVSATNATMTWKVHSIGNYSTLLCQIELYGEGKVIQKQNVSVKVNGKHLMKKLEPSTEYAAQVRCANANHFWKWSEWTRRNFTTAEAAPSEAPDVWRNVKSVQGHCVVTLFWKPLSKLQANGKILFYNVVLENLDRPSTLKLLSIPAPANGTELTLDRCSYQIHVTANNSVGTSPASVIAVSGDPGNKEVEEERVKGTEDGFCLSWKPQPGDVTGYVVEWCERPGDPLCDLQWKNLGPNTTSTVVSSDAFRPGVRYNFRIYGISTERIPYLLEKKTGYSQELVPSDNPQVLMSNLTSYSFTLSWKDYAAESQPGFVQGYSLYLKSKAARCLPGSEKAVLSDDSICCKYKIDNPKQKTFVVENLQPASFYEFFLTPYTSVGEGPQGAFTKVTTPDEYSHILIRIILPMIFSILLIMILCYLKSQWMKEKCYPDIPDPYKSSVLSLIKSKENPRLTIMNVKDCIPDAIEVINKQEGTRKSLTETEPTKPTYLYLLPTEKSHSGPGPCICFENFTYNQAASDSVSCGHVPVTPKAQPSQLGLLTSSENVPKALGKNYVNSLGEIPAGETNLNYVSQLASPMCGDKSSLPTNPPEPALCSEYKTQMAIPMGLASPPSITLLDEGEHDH

[3] = target: T1, canine OSMR on canine cells; experiment: cell-based or functional assay; remark: listed apart in the source
[4] = target: T2, feline OSMR on feline Fcwf-4 cells; experiment: cell-based or functional assay; remark: listed apart in the source
[5] = target: T3, ANTIBODY EXPRESSION CONTROL; experiment: SPR Biacore, expression control
T3 construct: also called mouse anti-canine antibody (capture reagent of the expression control ELISA)
Procedure, shortened: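 Surface plasmon resonance with OSMR amine-coupled at 5 μg/mL via NHS/EDC, ethanolamine-quenched, and candidate mAbs flowed over as analyte. ka, kd and KD derived from 1:1 model fits.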

Human_OSMR = target: T4, Human_OSMR (human, UniProt Q99650 28-739); experiment: SPR Biacore, OSMR on chip
T4 construct: Bought protein; also called hOSMR
T4 sequence: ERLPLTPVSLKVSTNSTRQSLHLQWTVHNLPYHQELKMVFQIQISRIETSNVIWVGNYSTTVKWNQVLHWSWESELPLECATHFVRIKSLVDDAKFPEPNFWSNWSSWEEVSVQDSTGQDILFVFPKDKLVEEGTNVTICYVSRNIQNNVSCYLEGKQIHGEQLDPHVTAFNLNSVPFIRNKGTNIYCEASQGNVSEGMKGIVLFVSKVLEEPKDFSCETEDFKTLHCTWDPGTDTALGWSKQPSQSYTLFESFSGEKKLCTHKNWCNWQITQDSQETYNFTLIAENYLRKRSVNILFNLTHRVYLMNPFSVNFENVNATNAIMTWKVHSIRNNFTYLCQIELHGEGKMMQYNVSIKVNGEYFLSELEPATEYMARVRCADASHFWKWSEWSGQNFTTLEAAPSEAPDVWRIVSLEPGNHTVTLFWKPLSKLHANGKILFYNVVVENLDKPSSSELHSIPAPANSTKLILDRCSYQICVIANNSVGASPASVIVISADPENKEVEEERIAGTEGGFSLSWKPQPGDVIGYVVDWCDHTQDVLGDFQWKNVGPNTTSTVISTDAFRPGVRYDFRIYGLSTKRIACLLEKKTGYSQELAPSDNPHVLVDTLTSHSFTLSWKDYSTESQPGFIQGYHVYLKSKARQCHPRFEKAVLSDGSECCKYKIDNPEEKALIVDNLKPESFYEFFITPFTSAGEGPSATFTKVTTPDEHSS
Description: The affinity with which candidate mAbs bind canine, feline, and human (SEQ ID NO: 122; Human_OSMR) (R&D Systems, Minneapolis, Minn.) OSMR was determined using surface plasmon resonance (SPR) on a Biacore system (Biacore Life Sciences (GE Healthcare), Uppsala, Sweden). To avoid affinity differences associated with differential surface preparation that can occur when immobilizing antibodies to surfaces; OSMR from each species was directly conjugated to individual surfaces. Immobilization was obtained by amine coupling 5 μg/mL OSMR using N-hydroxysuccinimide (NHS)/1-Ethyl-3-(3-dimethylaminopropyl) carbodiimide (EDC) chemistry. Chips were quenched with ethanolamine and the affinity with which all candidate mAbs bound to the immobilized OSMR was evaluated. All curves were fit to a 1:1 model. […] Results for affinity measurements are described herein.

B1: mouse: canine 10F07 chimera (antibody, V domains shown)
VH: DVKLVESGEGLVKPGGSLKLSCAASGFTFSSYAMSWVRQTPEKRLEWVTYISSGGDYFYYADTVKGRFTISRDNARNTLYLQMSSLKSEDTAMYYCTRDPITGTFAYWGQGTLVTVSA
VL: DIQMTQTTSSLSASLGDRVTISCRASQDITNYLNWYQQKPDGTVKLLIYYTSTLHSGVPSRFSGSGSGTDFSLTISNLEQEDIATYFCQQGHMLPWTFGGGTKLEIKR
notes: Mouse variable domains on canine IgG constant regions; also called 10F07 (Mouse:Canine); mouse:dog chimera 10F07
- IC50, inhibition of canine IL-31 pSTAT3 signaling, canine DH82 cells [1]: 0.05 µg/ml
- IC50, inhibition of canine OSM pSTAT3 signaling, canine DH82 cells [1]: 0.16 µg/ml
- IC50, inhibition of feline IL-31 pSTAT3 signaling, feline Fcwf-4 cells [2]: 0.32 µg/ml
- IC50, inhibition of canine IL-31 pSTAT3 signaling, canine DH82 cells [3]: 0.03 µg/ml
- IC50, inhibition of canine OSM pSTAT3 signaling, canine DH82 cells [3]: 0.2 µg/ml
- IC50, inhibition of canine OSM pSTAT3 signaling, feline Fcwf-4 cells [4]: 0.28 µg/ml
- IC50, inhibition of feline IL-31 pSTAT3 signaling, feline Fcwf-4 cells [4]: 0.05 µg/ml
- Kd [5]: 0.617 nM
- koff [5]: 8.27e-05 s⁻¹
- kon [5]: 134000 M⁻¹ s⁻¹
- binding result (Human_OSMR): no binding
